Our source for the Ka values is paper PMC4761961, “In silico selection of an aptamer to estrogen receptor alpha using computational docking employing estrogen response elements as aptamer-alike molecules”.

The target of one data set is T1, Estrogen receptor alpha (ERα) (human, UniProt P03372 1-595). Kind of data set: ITC; ITC: 10 mM Tris-HCl pH 8.0, 25 °C, 1 µM ERα in cell, 10 µM RNA in syringe; ELISA: 100 nM biotinylated ERaptR4, 2 h; western blot: 1 µM ERaptR4. The settings on record: chain copies: 2; hairpin. A general note: ITC needs no label: the signal is the heat of the interaction.
T1 sequence (P03372 whole entry): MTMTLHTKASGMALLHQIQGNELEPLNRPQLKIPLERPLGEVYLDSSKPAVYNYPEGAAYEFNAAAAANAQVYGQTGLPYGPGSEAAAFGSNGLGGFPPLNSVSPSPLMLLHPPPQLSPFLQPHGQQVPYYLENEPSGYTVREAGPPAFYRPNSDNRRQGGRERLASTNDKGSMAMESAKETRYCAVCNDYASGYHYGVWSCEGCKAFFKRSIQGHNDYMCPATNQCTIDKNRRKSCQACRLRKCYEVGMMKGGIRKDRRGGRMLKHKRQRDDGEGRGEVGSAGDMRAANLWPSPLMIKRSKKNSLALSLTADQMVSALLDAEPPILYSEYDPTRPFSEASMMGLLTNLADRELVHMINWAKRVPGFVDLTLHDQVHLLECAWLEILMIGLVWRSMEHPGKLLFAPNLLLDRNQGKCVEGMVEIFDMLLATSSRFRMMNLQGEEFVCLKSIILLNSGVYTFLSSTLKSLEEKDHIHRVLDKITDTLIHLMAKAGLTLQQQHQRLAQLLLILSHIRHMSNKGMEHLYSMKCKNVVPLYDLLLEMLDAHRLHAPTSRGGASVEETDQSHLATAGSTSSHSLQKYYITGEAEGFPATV
For GGGGUCAAGGUGACCCC (structured_RNA) [ERaptR4], the Ka worked out at 1.02e+08 M⁻¹.

The target of the next data set is T1, Estrogen receptor alpha (ERα). The description is as above. Particulars: chain copies: 2; hairpin. This is another data set of the same source.
For AGGGUCAUGGUGACCCU (structured_RNA) [ERaptR11], the Ka is 8.02e+07 M⁻¹. The molecule UAGGUCAGUAAGACCUC (structured_RNA) [ERaptR6] had a Ka of 9.46e+07 M⁻¹.

Molecule UUGGUCAAGCUGCCCUC (structured_RNA) [ERaptR17] showed a Ka of 1.26e+08 M⁻¹. The same measure, in the same setting: then CGGGUCAGGGUGACCUC (structured_RNA) [ERaptR8], with 8.88e+07 M⁻¹; and UGGUCAGGCUGGUCUCA (structured_RNA) [ERaptR9], with 9.46e+07 M⁻¹; and GCGGUCACCGUCACCUC (structured_RNA) [ERaptR15], with 9.25e+07 M⁻¹.

As to GGGGUCAAGGUCACCGC (structured_RNA) [ERaptR12], the Ka stood at 8.2e+07 M⁻¹. Still for that read-out and setting: then CCAGGUCACAGUGACCUG (structured_RNA) [ERaptR2], with 7.6e+07 M⁻¹. Same read-out and setting: under UUGGUCAGGCUGAUCUC (structured_RNA) [ERaptR16] stands 9.4e+07 M⁻¹; under CGGGUCACGAUGCCCUA (structured_RNA) [ERaptR7], 4.82e+07 M⁻¹; under CCAGUCAGUCUGAUUAU (structured_RNA) [ERaptR14], 7.42e+07 M⁻¹. The same measure, in the same setting: under CAGGUCAAGGCGAUCUU (structured_RNA) [ERaptR13] stands 8.96e+07 M⁻¹; under AGGGUCAGGGCCACCUG (structured_RNA) [ERaptR3], 5.24e+07 M⁻¹; under AAGGUCACGGUGGCCAC (structured_RNA) [ERaptR5], 6.82e+07 M⁻¹.

Turning to GGGGUCAGCUGUGCCCCG (structured_RNA) [ERaptR18], the Ka amounted to 9.91e+07 M⁻¹. With GAGGUCACUGAGACCAU (structured_RNA) [ERaptR1], the Ka was determined as 9.2e+07 M⁻¹.
